Experimental data from patent publication EP4714974A1 (Shanghai Qilu Pharmaceutical Research and Development …, dated 2026).

T1: cynomolgus monkey CD3 (purchased from Acro, Cat. No. CDD-C52W4) (cynomolgus monkey, UniProt Q95LI5 22-117)
T1 construct: Bought reagent
T1 sequence (looked up): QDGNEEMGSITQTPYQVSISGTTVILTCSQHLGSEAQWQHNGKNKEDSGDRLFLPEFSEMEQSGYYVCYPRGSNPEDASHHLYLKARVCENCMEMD

T2: cynomolgus monkey GPRC5D (cynomolgus monkey)
T2 chain: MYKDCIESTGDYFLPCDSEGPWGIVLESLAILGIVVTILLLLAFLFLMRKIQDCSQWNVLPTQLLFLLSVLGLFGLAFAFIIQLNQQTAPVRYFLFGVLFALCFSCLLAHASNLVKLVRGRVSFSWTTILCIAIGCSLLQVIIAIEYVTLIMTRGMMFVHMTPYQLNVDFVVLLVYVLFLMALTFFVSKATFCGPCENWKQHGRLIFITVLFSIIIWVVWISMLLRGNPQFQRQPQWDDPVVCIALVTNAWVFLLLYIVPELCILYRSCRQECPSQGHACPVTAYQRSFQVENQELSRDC

B1: Bispecific antibody 1 (bispecific antibody, human IgG1, kappa, L234A L235A)
heavy 1: not shown
heavy 2: QVQLVQSGAEVKKPGASVKVSCKASGYTFTSYIIHWVRQAPGQGLEWIGYINPYNDGTKYNEKFKGRVTMTSDTSTSTVYMELSSLRSEDTAVYYCARGGIRAFMNYWGQGTLVTVSSASTKGPSVFPLAPSSKSTSGGTAALGCLVKDYFPEPVTVSWNSGALTSGVHTFPAVLQSSGLYSLSSVVTVPSSSLGTQTYICNVNHKPSNTKVDKKVEPKSCDKTHTCPPCPAPEAAGGPSVFLFPPKPKDTLMISRTPEVTCVVVDVSHEDPEVKFNWYVDGVEVHNAKTKPREEQYNSTYRVVSVLTVLHQDWLNGKEYKCKVSNKALPAPIEKTISKAKGQPREPQVCTLPPSRDELTKNQVSLSCAVKGFYPSDIAVEWESNGQPENNYKTTPPVLDSDGSFFLVSKLTVDKSRWQQGNVFSCSVMHEALHNRYTQKSLSLSPGK
light: DIQMTQSPSSLSASVGDRVTITCKASQDVGTAVAWYQQKPGKAPKLLIYWASTRHTGVPSRFSGSGSGTDFTLTISSLQPEDFATYYCQHYISWTFGQGTKVEIKRTVAAPSVFIFPPSDEQLKSGTASVVCLLNNFYPREAKVQWKVDNALQSGNSQESVTEQDSKDSTYSLSSTLTLSKADYEKHKVYACEVTHQGLSSPVTKSFNRGEC
notes: 2+1 format: two GPRC5D Fabs and one CD3 scFv placed between a Fab and the Fc; also called anti-CD3-GPRC5D bispecific antibody 1; anti-GPRC5D/CD3 bispecific antibody
B2: Bispecific antibody 2 (bispecific antibody)
heavy: not shown
light: DIQMTQSPSSLSASVGDRVTITCKASQDVGTAVAWYQQKPGKAPKLLIYWASTRHTGVPSRFSGSGSGTDFTLTISSLQPEDFATYYCQHYISWTFGQGTKVEIKRTVAAPSVFIFPPSDEQLKSGTASVVCLLNNFYPREAKVQWKVDNALQSGNSQESVTEQDSKDSTYSLSSTLTLSKADYEKHKVYACEVTHQGLSSPVTKSFNRGEC
chain: DKTHTCPPCPAPEAAGGPSVFLFPPKPKDTLMISRTPEVTCVVVDVSHEDPEVKFNWYVDGVEVHNAKTKPREEQYNSTYRVVSVLTVLHQDWLNGKEYKCKVSNKALPAPIEKTISKAKGQPREPQVCTLPPSRDELTKNQVSLSCAVKGFYPSDIAVEWESNGQPENNYKTTPPVLDSDGSFFLVSKLTVDKSRWQQGNVFSCSVMHEALHNRYTQKSLSLSPGK
notes: 1+1 format: one GPRC5D Fab, one CD3 scFv between Fab and Fc, Fc-only hole chain; also called anti-CD3-GPRC5D bispecific antibody 2; anti-GPRC5D/CD3 bispecific antibody
B3: 18CH16H2L1 (humanized mouse hybridoma-derived anti-GPRC5D antibody) (antibody, V domains shown)
VH: QVQLVQSGAEVKKPGASVKVSCKASGYTFTSYIIHWVRQAPGQGLEWIGYINPYNDGTKYNEKFKGRVTMTSDTSTSTVYMELSSLRSEDTAVYYCARGGIRAFMNYWGQGTLVTVSS
VL: DIQMTQSPSSLSASVGDRVTITCKASQDVGTAVAWYQQKPGKAPKLLIYWASTRHTGVPSRFSGSGSGTDFTLTISSLQPEDFATYYCQHYISWTFGQGTKVEIK
notes: also called humanized clone 18CH16 antibody
B4: 18CH-16 (chimeric mouse hybridoma-derived anti-GPRC5D antibody) (antibody, V domains shown)
VH: EVQLQQSGPELVKPGASVKMSCKASGYTFTSYIIHWVKQKPGQGLEWIGYINPYNDGTKYNEKFKGKATLTSDRSSSTAYMEVSSLTSEDSAVYYCARGGIRAFMNYWGQGTSVTVSS
VL: DIVMTQSHKFMSTSVGDRVSITCKASQDVGTAVAWYQQKPGQSPKLLIYWASTRHTGVPDRFTGSGSGTDFTLSISNVQSEDLADYFCQHYISWTFGGGTNLEIK
notes: also called parent antibody

Experiments:
human GPRC5D [1] = biological target: T3, human GPRC5D (human, UniProt Q9NZD1 1-345); test: cell-based or functional assay
[2] = biological target: T4, human CD3 on Jurkat cells (human, UniProt P07766 23-207); test: flow cytometry (FACS) on Jurkat cells expressing hCD3
T4 construct: whole, on cells; CD3 complex on cells; also called hCD3; Jurkat cell strain

human GPRC5D [3] = biological target: T3, human GPRC5D; test: flow cytometry (FACS) on NCI-H929 cells expressing hGPRC5D
human GPRC5D [4] = biological target: T3, human GPRC5D; test: flow cytometry (FACS) on RPMI8226 cells expressing hGPRC5D
[5] = biological target: T5, human CD3 (purchased from Acro, Cat. No. CDD-H52W1) (human, UniProt P07766 23-126); test: SPR (Biacore 8K), CD3 immobilised on CM5 chip, bispecific antibody as analyte, 1:1 Langmuir fit
T5 construct: Bought reagent; also called human CD3 protein

[6] = biological target: T1, cynomolgus monkey CD3 (purchased from …); test: as above
human GPRC5D [7] = biological target: T3, human GPRC5D; test: flow cytometry on NCI-H929 cells
human GPRC5D [8] = biological target: T3, human GPRC5D; test: flow cytometry on human GPRC5D-CHOK1 cells
human GPRC5A = biological target: T6, human GPRC5A (human, UniProt Q8NFJ5 1-357); test: flow cytometry on human GPRC5A-CHOK1 cells
T6 construct: whole, on cells; also called human GPRC5A-CHOK1 cell line

human GPRC5D [9] = biological target: T3, human GPRC5D; test: flow cytometry on human GPRC5D-CHOK1 cells; remark: listed apart in the source
cynomolgus monkey GPRC5D = biological target: T2, cynomolgus monkey GPRC5D; test: flow cytometry on cynomolgus monkey GPRC5D-CHOK1 cells

T5 sequence (P07766 23-126): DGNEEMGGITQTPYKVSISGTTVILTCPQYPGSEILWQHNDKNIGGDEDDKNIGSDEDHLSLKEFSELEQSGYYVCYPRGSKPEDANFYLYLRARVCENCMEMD
T3 sequence (Q9NZD1 whole entry): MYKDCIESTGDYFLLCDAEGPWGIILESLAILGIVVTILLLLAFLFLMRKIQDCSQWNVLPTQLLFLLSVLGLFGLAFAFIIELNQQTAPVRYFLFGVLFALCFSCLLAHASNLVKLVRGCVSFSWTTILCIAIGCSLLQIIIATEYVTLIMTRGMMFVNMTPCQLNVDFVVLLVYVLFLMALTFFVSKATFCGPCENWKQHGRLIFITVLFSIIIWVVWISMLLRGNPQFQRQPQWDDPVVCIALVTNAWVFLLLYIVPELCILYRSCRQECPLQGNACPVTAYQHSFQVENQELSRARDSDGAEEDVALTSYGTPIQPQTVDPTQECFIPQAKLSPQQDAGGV
T4 sequence (P07766 23-207): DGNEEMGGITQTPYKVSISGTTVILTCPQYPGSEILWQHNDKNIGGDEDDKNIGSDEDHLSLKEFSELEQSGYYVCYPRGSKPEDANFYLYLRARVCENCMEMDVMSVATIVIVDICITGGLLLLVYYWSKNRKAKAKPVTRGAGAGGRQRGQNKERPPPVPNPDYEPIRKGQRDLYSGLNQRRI
T6 sequence (Q8NFJ5 whole entry): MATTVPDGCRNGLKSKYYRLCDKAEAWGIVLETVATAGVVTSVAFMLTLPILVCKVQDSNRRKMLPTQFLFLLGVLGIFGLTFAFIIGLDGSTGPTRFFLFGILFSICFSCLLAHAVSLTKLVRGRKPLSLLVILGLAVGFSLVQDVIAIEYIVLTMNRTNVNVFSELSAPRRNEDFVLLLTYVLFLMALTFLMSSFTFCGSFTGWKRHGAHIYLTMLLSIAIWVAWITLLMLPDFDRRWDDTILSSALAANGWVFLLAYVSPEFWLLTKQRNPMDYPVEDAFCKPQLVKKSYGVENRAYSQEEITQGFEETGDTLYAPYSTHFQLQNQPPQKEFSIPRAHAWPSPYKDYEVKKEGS

Binder	TDCC EC50(nM), NCI-H929 cell strain (human GPRC5D [1]) [nM]	TDCC EC50(nM), RPMI8226 cell strain (human GPRC5D [1]) [nM]	EC50 [2] [nM]	EC50 (human GPRC5D [3]) [nM]	EC50 (human GPRC5D [4]) [nM]	Kd [5] [nM]	koff [5] [s⁻¹]	kon [5] [M⁻¹ s⁻¹]	Kd [6] [nM]	koff [6] [s⁻¹]	kon [6] [M⁻¹ s⁻¹]	EC50 (human GPRC5D [7]) [nM]	EC50 (human GPRC5D [8]) [nM]	binding result (human GPRC5A)	EC50 (human GPRC5D [9]) [nM]	EC50 (cynomolgus monkey GPRC5D) [nM]
B1	0.001	0.01	22.1	1.07	7.48	20	0.00226	113000	16.8	0.00292	174000	–	–	–	–	–
B2	0.017	0.08	12.9	5.19	22.9	18.1	0.00214	118000	18.9	0.00279	147000	–	–	–	–	–
B3	–	–	–	–	–	–	–	–	–	–	–	0.3	0.51	–	–	–
B4	–	–	–	–	–	–	–	–	–	–	–	–	–	no binding (tested: 100 nM (initial concentration))	3.89	4.39
